Patent US20120122239A1

How the values were obtained:
[1] = biological target: glycosylated human proBNP (HyTest, Turku, Finland; Catalog No. 8GOB2) (human); assay: sandwich CMIA, capture 15C4, analyte 43.3 pM
[2] = biological target: human NT-pro B-type natriuretic peptide (HyTest, Turku, Finland; Catalog No. 8NT1) (human); assay: sandwich CMIA, capture 15C4, analyte 43.3 pM
[3] = biological target: human pro B-type natriuretic peptide (HyTest, Turku, Finland; Catalog No. 8PRO8) (human); assay: sandwich CMIA, capture 15C4, analyte 43.3 pM
[4] = biological target: glycosylated human proBNP (HyTest, Turku, Finland; Catalog No. 8GOB2) (human); assay: sandwich CMIA, capture 15C4, analyte 86.6 pM
[5] = biological target: human NT-pro B-type natriuretic peptide (HyTest, Turku, Finland; Catalog No. 8NT1) (human); assay: sandwich CMIA, capture 15C4, analyte 86.6 pM
[6] = biological target: human pro B-type natriuretic peptide (HyTest, Turku, Finland; Catalog No. 8PRO8) (human); assay: sandwich CMIA, capture 15C4, analyte 86.6 pM
[7] = biological target: glycosylated human proBNP (HyTest, Turku, Finland; Catalog No. 8GOB2) (human); assay: sandwich CMIA, capture 15F11, analyte 43.3 pM
[8] = biological target: human NT-pro B-type natriuretic peptide (HyTest, Turku, Finland; Catalog No. 8NT1) (human); assay: sandwich CMIA, capture 15F11, analyte 43.3 pM
[9] = biological target: human pro B-type natriuretic peptide (HyTest, Turku, Finland; Catalog No. 8PRO8) (human); assay: sandwich CMIA, capture 15F11, analyte 43.3 pM
[10] = biological target: glycosylated human proBNP (HyTest, Turku, Finland; Catalog No. 8GOB2) (human); assay: sandwich CMIA, capture 15F11, analyte 86.6 pM
[11] = biological target: human NT-pro B-type natriuretic peptide (HyTest, Turku, Finland; Catalog No. 8NT1) (human); assay: sandwich CMIA, capture 15F11, analyte 86.6 pM
[12] = biological target: human pro B-type natriuretic peptide (HyTest, Turku, Finland; Catalog No. 8PRO8) (human); assay: sandwich CMIA, capture 15F11, analyte 86.6 pM
[13] = biological target: glycosylated human proBNP (HyTest, Turku, Finland; Catalog No. 8GOB2) (human); assay: sandwich CMIA, capture 15C4, analyte 288.7 pM
[14] = biological target: human NT-pro B-type natriuretic peptide (HyTest, Turku, Finland; Catalog No. 8NT1) (human); assay: sandwich CMIA, capture 15C4, analyte 288.7 pM
[15] = biological target: human pro B-type natriuretic peptide (HyTest, Turku, Finland; Catalog No. 8PRO8) (human); assay: sandwich CMIA, capture 15C4, analyte 288.7 pM
[16] = biological target: glycosylated human proBNP (HyTest, Turku, Finland; Catalog No. 8GOB2) (human); assay: sandwich CMIA, capture 15C4, analyte 577.4 pM
[17] = biological target: human NT-pro B-type natriuretic peptide (HyTest, Turku, Finland; Catalog No. 8NT1) (human); assay: sandwich CMIA, capture 15C4, analyte 577.4 pM
[18] = biological target: human pro B-type natriuretic peptide (HyTest, Turku, Finland; Catalog No. 8PRO8) (human); assay: sandwich CMIA, capture 15C4, analyte 577.4 pM
[19] = biological target: glycosylated human proBNP (HyTest, Turku, Finland; Catalog No. 8GOB2) (human); assay: sandwich CMIA, capture 15F11, analyte 288.7 pM
[20] = biological target: human NT-pro B-type natriuretic peptide (HyTest, Turku, Finland; Catalog No. 8NT1) (human); assay: sandwich CMIA, capture 15F11, analyte 288.7 pM
[21] = biological target: human pro B-type natriuretic peptide (HyTest, Turku, Finland; Catalog No. 8PRO8) (human); assay: sandwich CMIA, capture 15F11, analyte 288.7 pM
[22] = biological target: glycosylated human proBNP (HyTest, Turku, Finland; Catalog No. 8GOB2) (human); assay: sandwich CMIA, capture 15F11, analyte 577.4 pM
[23] = biological target: human NT-pro B-type natriuretic peptide (HyTest, Turku, Finland; Catalog No. 8NT1) (human); assay: sandwich CMIA, capture 15F11, analyte 577.4 pM
[24] = biological target: human pro B-type natriuretic peptide (HyTest, Turku, Finland; Catalog No. 8PRO8) (human); assay: sandwich CMIA, capture 15F11, analyte 577.4 pM
[25] = biological target: glycosylated human proBNP (HyTest, Turku, Finland; Catalog No. 8GOB2) (human); assay: sandwich CMIA, capture 15C4, analyte 0.0 pM (blank)
[26] = biological target: human NT-pro B-type natriuretic peptide (HyTest, Turku, Finland; Catalog No. 8NT1) (human); assay: as above
[27] = biological target: human pro B-type natriuretic peptide (HyTest, Turku, Finland; Catalog No. 8PRO8) (human); assay: as above
[28] = biological target: glycosylated human proBNP (HyTest, Turku, Finland; Catalog No. 8GOB2) (human); assay: sandwich CMIA, capture 15F11, analyte 0.0 pM (blank)
[29] = biological target: human NT-pro B-type natriuretic peptide (HyTest, Turku, Finland; Catalog No. 8NT1) (human); assay: as above
[30] = biological target: human pro B-type natriuretic peptide (HyTest, Turku, Finland; Catalog No. 8PRO8) (human); assay: as above
[31] = biological target: human pro B-type natriuretic peptide (HyTest, Turku, Finland; Catalog No. 8PRO8) (human); assay: sandwich CMIA, capture 15F11, against human NT-proBNP
[32] = biological target: glycosylated human proBNP (HyTest, Turku, Finland; Catalog No. 8GOB2) (human); assay: sandwich CMIA, capture 15F11, 43.3 pM, against human NT-proBNP
[33] = biological target: human pro B-type natriuretic peptide (HyTest, Turku, Finland; Catalog No. 8PRO8) (human); assay: as above
[34] = biological target: glycosylated human proBNP (HyTest, Turku, Finland; Catalog No. 8GOB2) (human); assay: sandwich CMIA, capture 15F11, 86.6 pM, against human NT-proBNP
[35] = biological target: human pro B-type natriuretic peptide (HyTest, Turku, Finland; Catalog No. 8PRO8) (human); assay: as above
[36] = biological target: glycosylated human proBNP (HyTest, Turku, Finland; Catalog No. 8GOB2) (human); assay: sandwich CMIA, capture 15F11, 288.7 pM, against human NT-proBNP
[37] = biological target: human pro B-type natriuretic peptide (HyTest, Turku, Finland; Catalog No. 8PRO8) (human); assay: as above
[38] = biological target: glycosylated human proBNP (HyTest, Turku, Finland; Catalog No. 8GOB2) (human); assay: sandwich CMIA, capture 15F11, 577.4 pM, against human NT-proBNP
[39] = biological target: human pro B-type natriuretic peptide (HyTest, Turku, Finland; Catalog No. 8PRO8) (human); assay: as above

Chain of human NT-pro B-type natriuretic peptide (HyTest, Turku, Finland; Catalog No. 8NT1) (human) (chain, as listed by the source): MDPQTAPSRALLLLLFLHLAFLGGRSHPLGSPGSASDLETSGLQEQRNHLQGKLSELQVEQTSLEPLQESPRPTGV
Chain of human pro B-type natriuretic peptide (HyTest, Turku, Finland; Catalog No. 8PRO8) (human) (chain, as listed by the source): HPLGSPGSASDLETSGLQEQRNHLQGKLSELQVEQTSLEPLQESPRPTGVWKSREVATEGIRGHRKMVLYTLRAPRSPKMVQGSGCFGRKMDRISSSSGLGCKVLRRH

Substance	Analyte rlus [1]	Analyte rlus [2]	Analyte rlus [3]	Analyte rlus [4]	Analyte rlus [5]	Analyte rlus [6]	Analyte rlus [7]	Analyte rlus [8]	Analyte rlus [9]	Analyte rlus [10]	Analyte rlus [11]	Analyte rlus [12]	Analyte rlus [13]	Analyte rlus [14]	Analyte rlus [15]	Analyte rlus [16]	Analyte rlus [17]	Analyte rlus [18]	Analyte rlus [19]	Analyte rlus [20]	also measured
anti-human NT proBNP/anti-human proBNP monoclonal antibody 15C4 (HyTest, Turku, Finland)	1800 rlus	1980 rlus	2180 rlus	1880 rlus	2000 rlus	1820 rlus	1260 rlus	21200 rlus	1490 rlus	2010 rlus	57200 rlus	1540 rlus	1860 rlus	2060 rlus	1880 rlus	1790 rlus	2080 rlus	1960 rlus	1580 rlus	312000 rlus	Analyte rlus [21]: 2190 rlus; Analyte rlus [22]: 1450 rlus; Analyte rlus [23]: 662000 rlus; Analyte rlus [24]: 3360 rlus; Analyte rlus [25]: 1940 rlus; Analyte rlus [26]: 1940 rlus; Analyte rlus [27]: 1940 rlus; Analyte rlus [28]: 1340 rlus; Analyte rlus [29]: 1340 rlus; Analyte rlus [30]: 1340 rlus; % Cross-reactivity [31]: < 1%; % Cross-reactivity [32]: -0.4%; % Cross-reactivity [33]: 0.7%; % Cross-reactivity [34]: 1.2%; % Cross-reactivity [35]: 0.4%; % Cross-reactivity [36]: 0.1%; % Cross-reactivity [37]: 0.3%; % Cross-reactivity [38]: 0%; % Cross-reactivity [39]: 0.3%
anti-human NT proBNP/anti-human proBNP monoclonal antibody 15F11 (HyTest, Turku, Finland)	1010 rlus	883 rlus	851 rlus	835 rlus	998 rlus	1040 rlus	899 rlus	904 rlus	857 rlus	886 rlus	929 rlus	963 rlus	930 rlus	1140 rlus	945 rlus	859 rlus	1370 rlus	917 rlus	925 rlus	977 rlus	Analyte rlus [21]: 949 rlus; Analyte rlus [22]: 953 rlus; Analyte rlus [23]: 1010 rlus; Analyte rlus [24]: 897 rlus; Analyte rlus [25]: 847 rlus; Analyte rlus [26]: 847 rlus; Analyte rlus [27]: 847 rlus; Analyte rlus [28]: 912 rlus; Analyte rlus [29]: 912 rlus; Analyte rlus [30]: 912 rlus
anti-human NT-proBNP/anti-human proBNP labeled monoclonal antibody 7B5 (HyTest, Turku, Finland)	606 rlus	750 rlus	686 rlus	581 rlus	719 rlus	641 rlus	528 rlus	615 rlus	589 rlus	505 rlus	549 rlus	529 rlus	672 rlus	1180 rlus	607 rlus	800 rlus	2180 rlus	726 rlus	525 rlus	593 rlus	Analyte rlus [21]: 556 rlus; Analyte rlus [22]: 600 rlus; Analyte rlus [23]: 534 rlus; Analyte rlus [24]: 612 rlus; Analyte rlus [25]: 590 rlus; Analyte rlus [26]: 590 rlus; Analyte rlus [27]: 590 rlus; Analyte rlus [28]: 615 rlus; Analyte rlus [29]: 615 rlus; Analyte rlus [30]: 615 rlus
